Activity (transformants per 10^7 cells) data for one substance are collected here from patent publication US20050054106.

This data set addresses T1, PhiC31 integrase (Streptomyces phage PhiC31) (UniProt Q9T221).
T1 sequence: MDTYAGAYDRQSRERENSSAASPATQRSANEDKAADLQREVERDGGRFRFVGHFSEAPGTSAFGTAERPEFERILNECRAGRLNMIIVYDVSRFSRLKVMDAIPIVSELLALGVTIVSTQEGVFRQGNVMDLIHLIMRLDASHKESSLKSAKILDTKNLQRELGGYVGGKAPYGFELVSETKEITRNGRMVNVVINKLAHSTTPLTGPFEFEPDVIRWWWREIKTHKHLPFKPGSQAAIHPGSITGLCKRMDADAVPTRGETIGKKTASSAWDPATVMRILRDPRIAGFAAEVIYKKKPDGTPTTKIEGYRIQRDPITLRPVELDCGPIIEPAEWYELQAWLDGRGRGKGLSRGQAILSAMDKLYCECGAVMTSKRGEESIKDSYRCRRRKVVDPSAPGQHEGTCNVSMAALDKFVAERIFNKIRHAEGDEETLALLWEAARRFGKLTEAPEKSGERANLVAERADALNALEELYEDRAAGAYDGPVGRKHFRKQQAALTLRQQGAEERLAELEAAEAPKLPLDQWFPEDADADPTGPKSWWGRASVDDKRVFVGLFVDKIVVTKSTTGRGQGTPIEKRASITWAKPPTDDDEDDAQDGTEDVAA
Briefly: cell_activity. The conditions noted are these: S. pombe FY527attP, pLT45+pLT43; 63 without integrase, 120 with thiamine repression.

“attB (pLT45, 500 bp fragment) ; attP 84 bp (pLT44)” registered an activity (transformants per 10^7 cells) of 1100.
